± gives the uncertainty stated by the source.
Experiment: self-splicing fitness, log relative to wild type (ln ratio); higher = more splicing; Tetrahymena group I intron in knt gene, E. coli kanamycin selection, DiMSum; sequences stand for … in CUCUCU…GGAGGGAAAAGUUAUCAGGCAUGCACCUGGUAGCUAGUCUUUAAACCAAUAGAUUGCAUCGGUUUAAAAGGCAAGACCGUCAAAUUGCGGGAAAGGGGUCAACAGCCGUUCAGUACCAAGUCUCAGGGGAAACUUUGAGAUGGCCUUGCAAAGGGUAUGGUAAUAAGCUGACGGACAUGGUCCUAACCACGCAGCCAAGUCCUAAGUCAACAGAUCUUCUGUUGAUAUGGAUGCAGUUCACAGACUAAAUGUCGGUCGGGGAAGAUGUAUUCUUCUCAUAAGAUAUAGUCGGACCUCUCCUUAAUGGGAGCUAGCGGAUGAAGUGAUGCAACACUGGAGCCGCUGGGAACUAAUUUGUAUGCGAAAGUAUAUUGAUUAGUUUUGGAGUACUCGUGGUCG
How it was run: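 Colonies from six replicate transformations of E. coli BL21(DE3) were pooled and amplicon-sequenced on an Illumina HiSeq 2500. The library placed an intron with all eight P1ex-region nucleotides randomised inside the knt kanamycin-resistance gene on pET-22b(+), and cells grew overnight at 37°C or 30°C on LB agar with or without 25 μg/mL kanamycin (plus 100 μg/mL carbenicillin, 50 μM IPTG, 0.2% rhamnose). Fitness is the DiMSum error-weighted combination of wild-type-normalised replicate fold changes, kanamycin versus none.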

| Sequence | self-splicing fitness (ln) (30 °C) | self-splicing fitness (ln) (37 °C) |
| --- | --- | --- |
| ACUAAGCAAUAUUACGGGGG | -3.59 ± 0.29 | -1.26 ± 0.17 |
| ACUAAGCAAUAUUACGGUAG | -4.09 ± 0.2 | -3.56 ± 0.2 |
| ACUAAGCAAUAUUACGGUUA | -2.02 ± 0.1 | -1.06 ± 0.086 |
| ACUAAGCAAUAUUACGUAGC | -2.96 ± 0.16 | -1.25 ± 0.13 |
| ACUAAGCAAUAUUACGUGCA | -1.37 ± 0.073 | -0.431 ± 0.11 |
| ACUAAGCAAUAUUACGUUCA | -1.29 ± 0.1 | -0.98 ± 0.098 |
| ACUAAGCAAUAUUACGUUCC | -2.41 ± 0.23 | -1.2 ± 0.29 |
| ACUCAGCAAUAUUACGAAAU | -1.11 ± 0.091 | 0.0403 ± 0.099 |
| ACUCAGCAAUAUUACGAAGC | -1.99 ± 0.19 | -1.46 ± 0.16 |
| ACUCAGCAAUAUUACGACGA | -0.9 ± 0.087 | -0.164 ± 0.11 |
| ACUCAGCAAUAUUACGAGCA | -0.632 ± 0.068 | 0.302 ± 0.092 |
| ACUCAGCAAUAUUACGAUCA | -0.712 ± 0.13 | -0.359 ± 0.12 |
| ACUCAGCAAUAUUACGAUCG | -1.54 ± 0.074 | -0.221 ± 0.12 |
| ACUCAGCAAUAUUACGAUCU | -0.0985 ± 0.064 | 0.407 ± 0.08 |
| ACUCAGCAAUAUUACGCUUC | -2.3 ± 0.094 | -1.48 ± 0.12 |
| ACUCAGCAAUAUUACGGAUA | -0.808 ± 0.15 | -0.834 ± 0.16 |
| ACUCAGCAAUAUUACGGUUA | -0.995 ± 0.08 | -0.513 ± 0.076 |
| ACUCAGCAAUAUUACGUAUC | -2.28 ± 0.14 | -1.66 ± 0.14 |
| ACUCAGCAAUAUUACGUAUU | -2.01 ± 0.081 | -0.892 ± 0.11 |
| ACUCAGCAAUAUUACGUCGG | -1.74 ± 0.07 | -1.25 ± 0.084 |
| ACUCAGCAAUAUUACGUCUU | -0.765 ± 0.046 | 0.0108 ± 0.062 |
| ACUCAGCAAUAUUACGUUAC | -4.33 ± 0.26 | -2.31 ± 0.18 |
| ACUCAGCAAUAUUACGUUAU | -2.29 ± 0.073 | -1.27 ± 0.086 |
| ACUCAGCAAUAUUACGUUGG | -3.63 ± 0.15 | -1.49 ± 0.096 |

| Sequence | self-splicing fitness (ln) (30 °C) | self-splicing fitness (ln) (37 °C) |
| --- | --- | --- |
| ACUGAGCAAUAUUACGCAGG | -3.15 ± 0.23 | -1.14 ± 0.13 |
| ACUGAGCAAUAUUACGCGAU | -3.36 ± 0.25 | -1.71 ± 0.14 |
| ACUGAGCAAUAUUACGCGGU | -2.46 ± 0.31 |  |
| ACUGAGCAAUAUUACGGAAA | -2.92 ± 0.27 | -2.61 ± 0.28 |
| ACUGAGCAAUAUUACGGCAA | -2.13 ± 0.14 | -2.33 ± 0.21 |
| ACUGAGCAAUAUUACGGGGG | -3.19 ± 0.16 | -2.17 ± 0.17 |
| ACUGAGCAAUAUUACGGUCU | -2.46 ± 0.12 | -1.57 ± 0.16 |
| ACUGAGCAAUAUUACGGUUG | -2.76 ± 0.14 | -1.73 ± 0.15 |
| ACUGAGCAAUAUUACGUAUU | -3.29 ± 0.12 | -1.48 ± 0.097 |
| ACUGAGCAAUAUUACGUCUG | -3.59 ± 0.28 | -2.43 ± 0.2 |
| ACUGAGCAAUAUUACGUGAG | -1.82 ± 0.063 | -1.36 ± 0.085 |
| ACUGAGCAAUAUUACGUGCU | -3.84 ± 0.41 | -2.28 ± 0.27 |
| ACUGAGCAAUAUUACGUUCU | -1.77 ± 0.14 | -1.48 ± 0.12 |
| ACUUAGCAAUAUUACGAAAC | -3.64 ± 0.32 | -1.65 ± 0.24 |
| ACUUAGCAAUAUUACGAAGA | -1.69 ± 0.12 | -1.24 ± 0.14 |
| ACUUAGCAAUAUUACGACAA | -1.55 ± 0.17 | -0.888 ± 0.28 |
| ACUUAGCAAUAUUACGAGGG | -3.07 ± 0.24 | -2.65 ± 0.23 |
| ACUUAGCAAUAUUACGAGGU | -3.47 ± 0.22 | -1.96 ± 0.21 |
| ACUUAGCAAUAUUACGAUUU | -0.382 ± 0.07 | 0.252 ± 0.092 |
| ACUUAGCAAUAUUACGCAGG | -2.19 ± 0.13 | -1.79 ± 0.15 |
| ACUUAGCAAUAUUACGCAUG | -1.76 ± 0.085 | -0.581 ± 0.11 |
| ACUUAGCAAUAUUACGCCAU | -2.99 ± 0.35 | -2.52 ± 0.38 |
| ACUUAGCAAUAUUACGCCCU | -0.568 ± 0.16 | 0.0637 ± 0.28 |
| ACUUAGCAAUAUUACGCCGG | -1.08 ± 0.14 | -0.478 ± 0.18 |

| Sequence | self-splicing fitness (ln) (30 °C) | self-splicing fitness (ln) (37 °C) |
| --- | --- | --- |
| ACUUAGCAAUAUUACGCCUU | -0.353 ± 0.095 | -0.14 ± 0.11 |
| ACUUAGCAAUAUUACGCGAA | -1.74 ± 0.12 | -2.14 ± 0.2 |
| ACUUAGCAAUAUUACGCUGA | -2.63 ± 0.49 |  |
| ACUUAGCAAUAUUACGGACA | -1.46 ± 0.14 | -0.798 ± 0.14 |
| ACUUAGCAAUAUUACGGACU | -0.341 ± 0.096 | 0.14 ± 0.16 |
| ACUUAGCAAUAUUACGGCAA | -0.92 ± 0.16 | -1.31 ± 0.23 |
| ACUUAGCAAUAUUACGGCCU | -0.24 ± 0.1 | 0.312 ± 0.11 |
| ACUUAGCAAUAUUACGGCUU | -0.359 ± 0.14 | -0.614 ± 0.19 |
| ACUUAGCAAUAUUACGGGGA | -1.38 ± 0.12 | -1.18 ± 0.15 |
| ACUUAGCAAUAUUACGGUGC | -3.78 ± 0.24 | -1.06 ± 0.17 |
| ACUUAGCAAUAUUACGUAGC | -2.76 ± 0.12 | -1.58 ± 0.13 |
| ACUUAGCAAUAUUACGUAUU | -2.02 ± 0.12 | -2.26 ± 0.17 |
| ACUUAGCAAUAUUACGUCGU | -1.99 ± 0.079 | -1.28 ± 0.088 |
| ACUUAGCAAUAUUACGUGCC | -0.96 ± 0.13 | -1.4 ± 0.15 |
| ACUUAGCAAUAUUACGUUGG | -1.67 ± 0.079 | -1.05 ± 0.11 |
| AGAAAGCAAUAUUACGAAUG | -2.38 ± 0.15 | -2.25 ± 0.19 |
| AGAAAGCAAUAUUACGACCA | -0.541 ± 0.11 | 0.144 ± 0.15 |
| AGAAAGCAAUAUUACGAUCA | 0.101 ± 0.083 | 0.0881 ± 0.11 |
| AGAAAGCAAUAUUACGAUGG | -2.28 ± 0.15 | -3.17 ± 0.35 |
| AGAAAGCAAUAUUACGCCAA | -3.75 ± 0.17 | -2.91 ± 0.069 |
| AGAAAGCAAUAUUACGCGAC | -2.25 ± 0.15 | -1.65 ± 0.18 |
| AGAAAGCAAUAUUACGCGCC | -0.784 ± 0.11 | 0.139 ± 0.14 |
| AGAAAGCAAUAUUACGCUCG | 0.431 ± 0.14 | 0.318 ± 0.18 |
| AGAAAGCAAUAUUACGGACG | -0.883 ± 0.085 | -0.116 ± 0.13 |

| Sequence | self-splicing fitness (ln) (30 °C) | self-splicing fitness (ln) (37 °C) |
| --- | --- | --- |
| AGAAAGCAAUAUUACGUAUU | -2.59 ± 0.13 | -1.27 ± 0.14 |
| AGAAAGCAAUAUUACGUGCG | -0.896 ± 0.092 | -0.684 ± 0.11 |
| AGAAAGCAAUAUUACGUGUA | -2.13 ± 0.1 | -0.737 ± 0.094 |
| AGAAAGCAAUAUUACGUUGC | -4 ± 0.13 | -3.36 ± 0.15 |
| AGACAGCAAUAUUACGAGAC |  | -1.59 ± 0.37 |
| AGACAGCAAUAUUACGAGUA | -3.42 ± 0.21 | -1.47 ± 0.15 |
| AGACAGCAAUAUUACGAUGU | -3.43 ± 0.12 | -0.886 ± 0.088 |
| AGACAGCAAUAUUACGAUUC | -1.12 ± 0.08 | -0.569 ± 0.11 |
| AGACAGCAAUAUUACGCACA | -0.582 ± 0.079 | -0.0964 ± 0.099 |
| AGACAGCAAUAUUACGCACG | -2.11 ± 0.12 | -0.922 ± 0.13 |
| AGACAGCAAUAUUACGCCCC | -0.804 ± 0.24 | 0.31 ± 0.26 |
| AGACAGCAAUAUUACGCCUA | -1.46 ± 0.16 | -0.402 ± 0.17 |
| AGACAGCAAUAUUACGCCUU | -2.75 ± 0.097 | -0.727 ± 0.086 |
| AGACAGCAAUAUUACGCGAC | -3.41 ± 0.44 | -1.99 ± 0.21 |
| AGACAGCAAUAUUACGCGUC | -3.19 ± 0.29 | -2.08 ± 0.24 |
| AGACAGCAAUAUUACGCUCA | -0.572 ± 0.096 | 0.589 ± 0.12 |
| AGACAGCAAUAUUACGCUGU | -4.06 ± 0.29 | -2.54 ± 0.21 |
| AGACAGCAAUAUUACGGAUG | -2.81 ± 0.11 | -2.38 ± 0.17 |
| AGACAGCAAUAUUACGGGAC | -2.87 ± 0.18 | -2.54 ± 0.23 |
| AGACAGCAAUAUUACGGGGA | -3.11 ± 0.17 | -1.82 ± 0.12 |
| AGACAGCAAUAUUACGGGUA | -2.49 ± 0.1 | -2.1 ± 0.095 |
| AGACAGCAAUAUUACGGUCA | -0.457 ± 0.063 | -0.0714 ± 0.074 |
| AGACAGCAAUAUUACGUACC | -0.256 ± 0.11 | -0.253 ± 0.14 |
| AGACAGCAAUAUUACGUCCA | -0.173 ± 0.092 | -0.591 ± 0.14 |
